Measurements reported in PMC6474348.

Tests used:
[1] = molecular target: maltose binding protein (MBP)-batVP35 (Myotis lucifigus); assay: SEC-MALS
[2] = molecular target: eVP35 IID (MBP-eVP35 215-240 as printed) (Ebola virus, UniProt Q05127 215-340); assay: filter binding

Molecule	stoichiometry N [1]	binding signal [2]
maltose binding protein (MBP)-batVP35 (natural protein)	4	–
8 bp dsRNA (dsRNA) RNA 1: CGCAUGCG RNA 2: CGCAUGCG	–	1 fraction relative to eVP35
